Our source for the Kd values is patent publication EP4036575A1 (Yeda Research and Development Co. Ltd, dated 2022).

The experiment addresses T1, mouse recombinant His-calmodulin (mouse, UniProt P0DP26 1-149).
T1 construct: also called His-CaM; His-tagged calmodulin
Briefly: SPR (Biacore), His-CaM immobilised on CM5, analyte preincubated with 0.3 mM CaCl2.

A word on the Kd: it is the concentration at which binding is half-saturated. For the molecule KRRWKKNFIAVSAANRFKKISSSGAL, the equilibrium dissociation constant (Kd) was determined as 8.8 nM.
